From IntAct's records for PubMed 11587540

B1: Emerin (Homo sapiens), P50402 (parent)
chain: MDNYADLSDTELTTLLRRYNIPHGPVVGSTRRLYEKKIFEYETQRRRLSPPSSSAASSYSFSDLNSTRGDADMYDLPKKEDALLYQSKGYNDDYYEESYFTTRTYGEPESAGPSRAVRQSVTSFPDADAFHHQVHDDDLLSSSEEECKDRERPMYGRDSAYQSITHYRPVSASRSSLDLSYYPTSSSTSFMSSSSSSSSWLTRRAIRPENRAPGAGLGQDRQVPLWGQLLLFLVFVIVLFFIYHFMQAEEGNPF

Variants of: B1
Settings: with lmna_human LMNA

Row | effect of a mutation on the interaction | Variant
1 | with no effect | Q133H
